From US20210395392A1 (Bristol-Myers Squibb, published 2021) come the findings set out here.

Test [1] concerns the target T1, Recombinant soluble extracellular domain of human MerTK (human, UniProt Q12866 21-505).
T1 construct: SPR analyte; also called hMerTK
T1 sequence: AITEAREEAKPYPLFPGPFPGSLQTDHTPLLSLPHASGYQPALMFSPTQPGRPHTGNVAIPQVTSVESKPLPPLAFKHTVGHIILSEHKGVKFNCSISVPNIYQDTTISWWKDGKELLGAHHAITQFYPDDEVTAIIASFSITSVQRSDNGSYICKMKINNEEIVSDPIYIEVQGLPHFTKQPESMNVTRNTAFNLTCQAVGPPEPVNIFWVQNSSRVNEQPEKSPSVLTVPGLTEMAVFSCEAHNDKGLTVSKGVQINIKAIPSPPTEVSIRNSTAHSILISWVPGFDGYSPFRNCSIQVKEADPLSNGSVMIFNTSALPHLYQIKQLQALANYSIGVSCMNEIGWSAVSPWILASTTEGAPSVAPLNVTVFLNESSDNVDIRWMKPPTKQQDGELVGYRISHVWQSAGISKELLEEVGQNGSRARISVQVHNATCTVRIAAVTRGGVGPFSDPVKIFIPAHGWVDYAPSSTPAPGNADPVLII
The experiment in a line: SPR, mAb captured, soluble MerTK ECD as analyte, 37 C. The protocol:
MerTK Abs were captured on the chip. Recombinant soluble forms of the extracellular domains of human, cynomolgus monkey, and mouse MerTK polypeptide were injected as analytes at multiple concentrations each. The resulting sensorgrams were double-referenced and fitted to a 1:1 Langmuir binding model with mass transport.

Test [2] has as its target T2, Recombinant soluble extracellular domain of mouse MerTK (mouse, UniProt Q60805 19-497).
T2 construct: SPR analyte; also called mMerTK
T2 sequence: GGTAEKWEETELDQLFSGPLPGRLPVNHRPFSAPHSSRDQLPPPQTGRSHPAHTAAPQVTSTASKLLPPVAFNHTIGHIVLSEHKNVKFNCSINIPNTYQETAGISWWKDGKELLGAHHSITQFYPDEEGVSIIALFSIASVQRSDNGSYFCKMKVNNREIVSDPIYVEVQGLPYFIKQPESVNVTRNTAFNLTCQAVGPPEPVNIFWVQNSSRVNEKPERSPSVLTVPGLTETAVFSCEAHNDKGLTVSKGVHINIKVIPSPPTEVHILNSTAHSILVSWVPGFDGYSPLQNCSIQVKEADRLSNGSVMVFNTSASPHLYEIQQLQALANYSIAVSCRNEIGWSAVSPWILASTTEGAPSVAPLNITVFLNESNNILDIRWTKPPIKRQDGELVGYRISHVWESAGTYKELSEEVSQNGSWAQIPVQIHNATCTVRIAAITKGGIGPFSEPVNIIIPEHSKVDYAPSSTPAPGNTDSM
The experiment in a line: summary sentence of the description; assay not named.

Test [3] concerns the target T3, Mouse MerTK on mMerTK-expressing cells (mouse, UniProt Q60805 19-994).
T3 sequence: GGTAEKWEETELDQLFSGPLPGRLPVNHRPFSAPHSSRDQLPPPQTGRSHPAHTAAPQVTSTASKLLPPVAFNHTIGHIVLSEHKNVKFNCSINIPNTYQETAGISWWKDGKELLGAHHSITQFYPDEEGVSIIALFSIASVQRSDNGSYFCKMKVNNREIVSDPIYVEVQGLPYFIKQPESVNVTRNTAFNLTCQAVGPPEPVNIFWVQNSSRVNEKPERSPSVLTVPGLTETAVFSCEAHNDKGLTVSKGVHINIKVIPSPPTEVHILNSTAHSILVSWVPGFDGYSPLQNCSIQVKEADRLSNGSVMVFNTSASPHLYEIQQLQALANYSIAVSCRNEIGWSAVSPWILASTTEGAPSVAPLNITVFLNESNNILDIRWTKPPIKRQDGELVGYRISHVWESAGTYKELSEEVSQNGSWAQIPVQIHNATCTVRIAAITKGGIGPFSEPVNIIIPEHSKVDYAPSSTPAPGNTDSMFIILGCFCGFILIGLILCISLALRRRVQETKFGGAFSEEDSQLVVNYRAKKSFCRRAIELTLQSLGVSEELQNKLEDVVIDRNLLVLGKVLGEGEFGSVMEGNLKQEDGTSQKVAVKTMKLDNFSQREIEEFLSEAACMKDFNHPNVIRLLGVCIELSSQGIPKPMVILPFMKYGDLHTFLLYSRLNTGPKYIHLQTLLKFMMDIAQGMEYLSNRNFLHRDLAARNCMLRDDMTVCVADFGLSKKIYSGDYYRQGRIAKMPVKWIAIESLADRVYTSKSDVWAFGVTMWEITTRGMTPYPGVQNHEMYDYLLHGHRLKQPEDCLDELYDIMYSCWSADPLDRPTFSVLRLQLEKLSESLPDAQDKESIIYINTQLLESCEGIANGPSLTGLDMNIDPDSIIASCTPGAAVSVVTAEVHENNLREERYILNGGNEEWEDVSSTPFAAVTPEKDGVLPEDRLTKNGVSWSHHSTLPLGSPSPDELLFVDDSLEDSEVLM
The test can be described thus: cell-based or functional assay.

Residue numbers refer to the chain shown, from its start. Where only a bound is given, the exact number is not on record here.

B1: HuMAb 8N42 (antibody, V domains shown)
VH: QVQLQQWGAGLLKPSETLSLTCAVYGGSFSIYYWSWIRQPPGKGLELIGEINDEGNTNYNPSLKSRVTISVDTSKNQFSLKLSSVTAADTAVYYCARGGTGDIHAFDIWGQGTMVTVSS
VL: DIQMTQSPSSLSASVGDRVTITCRASQGISKWLAWYQQKPEKAPKSLIYAASSLQSGVPSRFSGSGSGTDFTLTISSLQPEDFATYYCQQYNSYPWTFGQGTKVEIKR
notes: Human anti-hMerTK mAb, Bin 1
In the case of B1, in test [1], the dissociation constant Kd – broadly, the equilibrium constant for the complex coming apart – turned out to be 5.7 nM; the off-rate constant (koff) (in general, the first-order rate constant of dissociation) was found to be 0.00168 s⁻¹; the on-rate constant (kon) (commonly the second-order rate constant of association) was 299000 M⁻¹ s⁻¹; the t1/2 worked out at 6.9 min. For the same molecule, in test [2], the binding result is listed as “no binding”.

B2: HuMAb 1B4 (antibody, human IgG1, kappa, V domains shown)
VH: QLQLQESGPGLVKPSETLSLTCAVSGYSISSGNYWGWIRQSPGKGLEWIGSVDHSGSTYYSPSLKSRVTISVDTSKNQFSLKLNSVTAADTADYYCARNTMIRGVMDWFDPWGQGTLVTVSS
VL: AIQLTQSPSSLSASVGDRVTITCRASQGISSALAWYQQKPGKAPKVLIYDASSLESGVPSRFSGSGSGTDFTLTISSLQPEDFATYYCQQFRSYPTFGQGTKVEIKR
notes: Human anti-hMerTK mAb, Bin 1
As for B2, the “Signaling Assay, mMerTK with Gas6, pSTAT1 IC50 (nM)” value in test [3] is more than 100 nM. Besides, in test [1], the dissociation constant (Kd) came out at 34.4 nM, the koff is 0.00844 s⁻¹, the kon amounted to 250000 M⁻¹ s⁻¹ and the t1/2 is 1.4 min. Moreover, in test [2], the binding result was “no binding”.

B3: HuMAb 22I16 (antibody, human IgG1, kappa, V domains shown)
VH: EVQLVESGGGLVQPGGSLRLSCAASGFTFSSYSMNWVRQAPGKGLEWVSYIISGSDTIFYADSVKGRFTISRDNAKNSLYLQMNSLRDEDTAVYYCARDETVVRGVINYFDYWGQGTLVTVSS
VL: B2 VL with A25S, V46L, R92I, K102R, V103L
notes: Human anti-hMerTK mAb, Bin 1; also called 22116
Consider B3, for which, in test [1], the equilibrium dissociation constant (Kd) stood at 10.6 nM, the koff amounted to 0.000775 s⁻¹, the kon was determined as 73500 M⁻¹ s⁻¹ and the t1/2 was 14.9 min. Besides, the binding result in test [2] was “no binding”.

B4: HuMAb 4K10 (antibody, human IgG1, kappa, V domains shown)
VH: QVQLQQWGAGLLKPSETLSLTCAVYGGSFSGYYWSWLRQPPGKGLEWIGEISHSGSTNYNPSLKSRVTISVDTSKNQFSLKLSSVTAADTAVYYCARALSRYWYFDLWGRGTLVTVSS
VL: EIVLTQSPATLSLSPGERATLSCRASQSASNYLAWYQQKPGQAPRLLIYDASNRATGIPARFSGSGSGTDFTLTISSLEPEDFAVYYCYQRSQWPISFGQGTRLEIKR
notes: Human anti-hMerTK mAb, Bin 3
Turning to B4, in test [1], the dissociation constant Kd stood at 27.8 nM, the off-rate (koff) was found to be 0.00336 s⁻¹, the on-rate constant (kon) is 121000 M⁻¹ s⁻¹ and the t1/2 worked out at 3.4 min. Moreover, in test [2], the binding result is given as “no binding”.

B5: HuMAb 25J60 (antibody, human IgG1, kappa, V domains shown)
VH: QVQLVQSGAEVKKPGASVKVSCKTSGNTQIRYYMYWVRQAPGQGLEWMGILNPNQDQTTYAQKFQGRVTMTRDTSTSTVYMELSSLRSEDTAVYYCATTYRYYMDVWGQGTTVTVSS
VL: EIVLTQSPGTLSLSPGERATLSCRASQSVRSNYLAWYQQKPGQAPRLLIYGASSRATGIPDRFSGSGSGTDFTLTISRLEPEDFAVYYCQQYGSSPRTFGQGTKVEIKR
notes: Human anti-hMerTK mAb, Bin 2, derived from HuMAb 25B10 by optimization
For B5, in test [1], the Kd worked out at 2.3 nM, the koff was determined as 0.000975 s⁻¹, the kon was determined as 421000 M⁻¹ s⁻¹ and the t1/2 was found to be 11.9 min. For the same molecule, the binding result in test [2] is on record as “no binding”.

B6: HuMAb 25J80 (antibody, human IgG1, kappa, V domains shown)
VH: B5 VH with N27R, Q29F, Y35H, L51I, N52W, Q55G, R101K, Y103A
VL: EIVLTQSPGTLSLSPGERATLSCRASQSVRSNYLAWYQQKPGQAPRLLIYGASSRATGIPDRFSGSGSGTDFTLTISRLEPEDFAVYYCQQYESPPRTFGQGTKVEIKR
notes: as for B5
For B6, in test [1], the Kd was determined as 4.1 nM, the koff came to 0.00123 s⁻¹, the kon came to 297000 M⁻¹ s⁻¹ and the t1/2 is 9.6 min. The binding result in test [2] is on record as “no binding”.
